For two substances, IC50 (µM), hCAII functional assay and IC50 (inhibition of pNPA hydrolysis, colorimetric assay) results are on record in patent US20220283175A1, “METALLOENZYMES FOR BIOMOLECULAR RECOGNITION OF N-TERMINAL MODIFIED PEPTIDES” (Encodia, Inc., priority 2020, published 2022).

Among the targets are M64-AAEIR; M64-DAEIR; M64-EAEIR; M64-FAEIR; M64-LAEIR.
Test in all cases: cell-based or functional assay
Assay [1] deals with wild-type human carbonic anhydrase II (hCAII) protein (human) (UniProt P00918).

In assay [1], FAAAE (peptide) returned an IC50 (µM), hCAII functional assay of 152 µM.

Take “SEQ ID NO: 58 (wild-type hCAI according to the heading of Table 11) (from UniProt P00915 5-261) (enzyme)”: the IC50 (inhibition of pNPA hydrolysis, colorimetric assay) is 0.109 µM with M64-AAEIR; 0.136 µM with M64-DAEIR; 1.09 µM with M64-EAEIR; 0.012 µM with M64-FAEIR; 0.016 µM with M64-LAEIR.
